# Data from patent publication US20090269346A1 (RAPTOR PHARMACEUTICAL, published 2009).
# T1: LRP2 CR2728 (UniProt P98164 3552-3631)
# T1 construct: domain: CR27 and CR28; its making is not described
# T1 sequence (looked up): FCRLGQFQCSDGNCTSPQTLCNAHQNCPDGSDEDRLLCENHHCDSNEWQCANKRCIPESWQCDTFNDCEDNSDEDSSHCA
# Molecular target: T1, LRP2 CR2728
# Test: solid-phase binding assay, ligand at 80 nM on coated CR proteins, blank-corrected absorbance
# Experimental: Solid phase binding assays-Purified, refolded CR protein (1 μg) was bound to Nunc Maxisorp™ 96-well plates in TBS pH 8 supplemented with 5 mM CaCl₂ (TBSC) overnight at 4° C. Wells were washed with TBSC and then blocked with TBSC containing 2% bovine serum albumin (BSA). RAP ligands were then incubated with the immobilized receptor at a range of concentrations for 2 hours in the above blocking buffer supplemented with 0.05% Tween-20 at room temperature. Control wells contained no added ligand. As an additional control, to determine whether the absence of calcium affected binding, 10 mM EGTA was included in the incubation medium for some samples. Wells were washed with TBSTC and bound ligands detected with polyclonal anti-RAP (BP41/42, 1:1,000, BioMarin). Excess primary antibody was removed and wells washed before incubation with the secondary antibody, HRP-conjugated goat anti rabbit IgG (Bio-Rad). After washing, TMB substrate solutions (Bio-Rad) were added to detect HRP. Color development was stopped with 1N HCl. Absorption at 450 nm was measured with a microplate spectrophotometer (Molecular Devices). Data were plotted and Kd values derived by non-linear regression with the assumption of single-site binding (GraphPad Prism).
# Binding experiments were also carried out comparing the binding of RAP d3 and RAPv2A d3 to an array of CR pairs (FIG. 9), similar to the experiment depicted in FIG. 5. For these experiments, RAP d3 and RAPv2A d3 (or RAPv2 d3) were each incubated at 80 nM concentrations with LRP1 CR3-5, LRP6 CR12, LRP6 CR23, LRP6 CR1-3, LRP2 CR89, LRP2 CR2728, LRP2 CR3031, LRP2 CR3435, LRP2 CR34-36, VLDLR CR78, VLDLR CR6-8, MAT CR12, MAT CR23 and MAT CR34. Samples were tested twice, in duplicate, and values combined. Means and standard deviations were then calculated. Blank values obtained from wells incubated in the absence of ligand were used to correct absorbance data.
binder,measurement,value
"wild-type RAP d3 (ligand, expressed in E. coli from pET30(+)a; not shown: vector-encoded N-terminal tags of pET30(+)a (hexahistidine and S-peptide, as stated for the CR constructs)) LDRLRRVSHQGYSTEAEFEEPRVIDLWDLEQSANLTDKELEAFREELKHFEAKIEKHNHYQKQLEIAHEKLRHAESVGDGERVSRSREKHALLEGRTKELGYTVKKHLQDLSGRISRAR",binding result,no binding (tested: 80 nM)
